Consider two proteins from ChEMBL document CHEMBL2074010, “Transport function and hepatocellular localization of mrp6 in rat liver” (Mol Pharmacol, 2000).

Substrate in series [1]: CC(C)C[C@@H]1NC(=O)[C@@H](C(C)C)NC(=O)[C@@H]2CCCN2C(=O)[C@@H](CC(=O)O)NC(=O)[C@@H](Cc2c[nH]c3ccccc23)NC1=O
The experiment in a line: TP_TRANSPORTER: uptake in membrane vesicles from Mrp2-expressing Sf9 cells. The class given is functional, cell membranes, Membrane vesicle.

Substrate in series [2]: CC(C)C[C@@H]1NC(=O)[C@@H](C(C)C)NC(=O)[C@@H]2CCCN2C(=O)[C@@H](CC(=O)O)NC(=O)[C@@H](Cc2c[nH]c3ccccc23)NC1=O
In words: TP_TRANSPORTER: uptake in membrane vesicle from Mrp6-expressing Sf9 cells. It counts as functional, cell membranes.

B1: ATP-binding cassette sub-family C member 2 (Rattus norvegicus) (protein)
chain: MDKFCNSTFWDLSLLESPEADLPLCFEQTVLVWIPLGFLWLLAPWQLYSVYRSRTKRSSITKFYLAKQVFVVFLLILAAIDLSLALTEDTGQATVPPVRYTNPILYLCTWLLVLAVQHSRQWCVRKNSWFLSLFWILSVLCGVFQFQTLIRALLKDSKSNMAYSYLFFVSYGFQIVLLILTAFSGPSDSTQTPSVTASFLSSITFSWYDRTVLKGYKHPLTLEDVWDIDEGFKTRSVTSKFEAAMTKDLQKARQAFQRRLQKSQRKPEATLHGLNKKQSQSQDVLVLEEAKKKSEKTTKDYPKSWLIKSLFKTFHVVILKSFILKLIHDLLVFLNPQLLKLLIGFVKSSNSYVWFGYICAILMFAVTLIQSFCLQSYFQHCFVLGMCVRTTVMSSIYKKALTLSNLARKQYTIGETVNLMSVDSQKLMDATNYMQLVWSSVIQITLSIFFLWRELGPSILAGVGVMVLLIPVNGVLATKIRNIQVQNMKNKDKRLKIMNEILSGIKILKYFAWEPSFQEQVQGIRKKELKNLLRFGQLQSLLIFILQITPILVSVVTFSVYVLVDSANVLNAEKAFTSITLFNILRFPLSMLPMVTSSILQASVSVDRLERYLGGDDLDTSAIRRVSNFDKAVKFSEASFTWDPDLEATIQDVNLDIKPGQLVAVVGTVGSGKSSLVSAMLGEMENVHGHITIQGSTAYVPQQSWIQNGTIKDNILFGSEYNEKKYQQVLKACALLPDLEILPGGDMAEIGEKGINLSGGQKQRVSLARAAYQDADIYILDDPLSAVDAHVGKHIFNKVVGPNGLLAGKTRIFVTHGIHFLPQVDEIVVLGKGTILEKGSYRDLLDKKGVFARNWKTFMKHSGPEGEATVNNDSEAEDDDDGLIPTMEEIPEDAASLAMRRENSLRRTLSRSSRSSSRRGKSLKNSLKIKNVNVLKEKEKEVEGQKLIKKEFVETGKVKFSIYLKYLQAVGWWSILFIILFYGLNNVAFIGSNLWLSAWTSDSDNLNGTNNSSSHRDMRIGVFGALGLAQGICLLISTLWSIYACRNASKALHGQLLTNILRAPMRFFDTTPTGRIVNRFSGDISTVDDLLPQTLRSWMMCFFGIAGTLVMICMATPVFAIIIIPLSILYISVQVFYVATSRQLRRLDSVTKSPIYSHFSETVTGLPIIRAFEHQQRFLAWNEKQIDINQKCVFSWITSNRWLAIRLELVGNLVVFCSALLLVIYRKTLTGDVVGFVLSNALNITQTLNWLVRMTSEAETNIVAVERISEYINVENEAPWVTDKRPPADWPRHGEIQFNNYQVRYRPELDLVLKGITCNIKSGEKVGVVGRTGAGKSSLTNCLFRILESAGGQIIIDGIDVASIGLHDLRERLTIIPQDPILFSGSLRMNLDPFNKYSDEEVWRALELAHLRSFVSGLQLGLLSEVTEGGDNLSIGQRQLLCLGRAVLRKSKILVLDEATAAVDLETDSLIQTTIRKEFSQCTVITIAHRLHTIMDSDKIMVLDNGKIVEYGSPEELLSNRGSFYLMAKEAGIENVNHTEL
As for B1, in series [1], the Km (as a rule, the concentration of substrate that gives half-maximal velocity) came out at 124 µM.

B2: ATP-binding cassette sub-family C member 6 (Rattus norvegicus) (protein)
chain: MNGEHSMATPGESCAGLRVWNQTEQEPVAYHLLNLCFLRAAGSWVPPMYLWVLGPIYLLYIHRHGCCYLRMSRLFKIKMVLGFALILLYTFNAAVPLWRIHRGMPQAPELLIHPTVWLTTMSFATFLIHMERKKGVRASGLLFGYWLLCCLVPAIDTVQQASAGSFRQEPLHHLATYLCLSLVVAELVLSCLVDQPPFFSEDSKPLNPCPEAEASFPSKAMFWWASGLLWKGYRKLLGPKDLWSLERENSSEELVSQLEREWRRNFSELPGHKGHSGMGTPETEAFLQPERSQRGPLLRAIWRVFRSTFLLGTLSLVISDAFRFAVPKLLSLFLEFMGDLESSAWTGWLLAVLMFLSACLQTLFEQQYMYRVKVLQMRLRTAITGLVYRKVLVLSSGSRKSSAAGDVVNLVSVDVQRLVESILHLNGLWLLFLWIIVCFVYLWQLLGPSALTAVAVFLSLLPLNFFITKKRSFHQEEQMRQKASRARLTSSMLRTVRTIKSHGWECAFLERLLHIRGQELGALKTSAFLFSVSLVSFQVSTFLVALVVFAVHTLVAEDNAMDAEKAFVTLTVLSILNKAQAFLPFSVHCLVQARVSFDRLAAFLCLEEVDPNGMVLSPSRCSSKDRISIHNGTFAWSQESPPCLHGINLTVPQGCLLAVVGPVGAGKSSLLSALLGELLKVEGSVSIEGSVAYVPQEAWVQNTSVVENVCFRQELDLPWLQEVLEACALGSDVASFPAGVHTPVGEQGMNLSGGQKQRLSLARAVYRRAAVYLMDDPLAALDAHVSQEVFKQVIGPSGLLQGTTRILVTHTLHVLPQADQILVLANGTIAEMGSYQDLLHRNGALVGLLDGARQPAGEGEGEAHAAATSDDLGGFSGGGTPTRRPERPRPSDAAPVKGSTSEAQMEPSLDDVEVTGLTAGEDSVQYGRVKSATYLSYLRAVGTPLCTYTLFLFLCQQVASFCQGYWLSLWADDPVVDGKQMHSALRGSIFGLLGCLQAIGLFASMAAVFLGGARASCLLFRSLLWDVARSPIGFFERTPVGNLLNRFSKETDIVDVDIPDKMRTLLTYAFGLLEVGLAVSMATPLAIVAILPLMLLYAGFQSLYVATCCQLRRLESASYSSVCSHLAETFQGSQVVRAFQAQGPFTAQHDALMDENQRISFPRLVADRWLAANLELLGNGLVFVAATCAVLSKAHLSAGLAGFSVSAALQVTQTLQWVVRSWTDLENSMVAVERVQDYVHTPKEAPWRLPSSAAQPLWPCGGQIEFRDFGLRHRPELPMAVQGVSLKIHAGEKVGIVGRTGAGKSSLTWGLLRLQEATEGGIWIDGVPITDMGLHTLRSRITIIPQDPVLFPGSLRMNLDLLQENTDEGIWAALETVQLKAFVTSLPGQLQYECSGQGDDLSVGQKQLLCLARALLRKTQILILDEATASVDPGTEIQMQAALERWFAQCTVLLIAHRLRSVMNCARVLVMDEGQVAESGSPAQLLAQKGLFYRLAQESGLA
On to B2, for which, in series [2], the Km turned out to be 17 µM.
